# Experimental data taken from article PMC10136559, “An Aptamer That Rapidly Internalizes into Cancer Cells Utilizes the Transferrin Receptor Pathway”.
# B1: Waz (DL650-Waz) (XNA)
# RNA: GGGUUCUACGAUAAACGGUUAAUGACCAGCUUAUGGCUGGCAGUUCCC
# modifications: 2'-fluoro pyrimidines; 3' inverted dT
# B2: C2.min (DL650-C2.min) (XNA)
# RNA: GGGGGAUCAAUCCAAGGGACCCGGAAACGCUCCCUUACACCCC
# modifications: 2'-fluoro pyrimidines; 3' inverted dT
# B3: E3 (DL650-E3) (XNA)
# RNA: GGCUUUCGGGCUUUCGGCAACAUCAGCCCCUCAGCC
# modifications: 2'-fluoro pyrimidines; 3' inverted dT
# B4: C36 (DL650-C36) (XNA)
# RNA: GGCGUAGUGAUUAUGAAUCGUGUGCUAAUACACGCC
# modifications: 2'-fluoro pyrimidines; 3' inverted dT
# Assays:
# [1] = molecular target: T1, human transferrin receptor 1 (hTfR) (Homo sapiens, UniProt P02786 89-760); test: bead-based flow cytometry; apparent Kd; 0-100 nM aptamer range; SB1T: 40 mM HEPES, 125 mM NaCl, 5 mM KCl, 1 mM MgCl2, 1 mM CaCl2, 0.05% Tween20, 1 mg/mL salmon sperm DNA; 37 °C, 30 min; pH not stated; conditions: protein: recombinant; tags: His; chain copies: 2; label: 5' DyLight 650 via thiol C6
# T1 sequence (P02786 89-760): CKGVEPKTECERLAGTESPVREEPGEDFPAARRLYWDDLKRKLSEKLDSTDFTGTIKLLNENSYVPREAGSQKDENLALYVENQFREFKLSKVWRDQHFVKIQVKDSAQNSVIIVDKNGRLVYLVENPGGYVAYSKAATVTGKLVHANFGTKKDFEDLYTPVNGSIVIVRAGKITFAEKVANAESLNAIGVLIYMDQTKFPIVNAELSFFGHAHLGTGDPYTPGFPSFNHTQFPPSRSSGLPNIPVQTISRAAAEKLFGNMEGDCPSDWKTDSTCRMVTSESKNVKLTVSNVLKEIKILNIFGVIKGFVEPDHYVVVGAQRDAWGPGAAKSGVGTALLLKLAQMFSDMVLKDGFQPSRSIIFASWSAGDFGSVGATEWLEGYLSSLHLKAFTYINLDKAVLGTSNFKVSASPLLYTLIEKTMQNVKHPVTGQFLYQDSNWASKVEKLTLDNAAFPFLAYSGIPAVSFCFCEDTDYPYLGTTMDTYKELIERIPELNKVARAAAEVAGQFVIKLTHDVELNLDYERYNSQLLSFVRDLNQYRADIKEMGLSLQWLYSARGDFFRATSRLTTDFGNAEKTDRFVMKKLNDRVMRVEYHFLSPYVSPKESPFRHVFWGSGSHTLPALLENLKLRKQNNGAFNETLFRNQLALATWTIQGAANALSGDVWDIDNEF
# [2] = molecular target: mouse transferrin receptor (mTfR) (Mus musculus, UniProt Q62351 89-763); test: bead-based flow cytometry; 200 nM aptamer; SB1T: 40 mM HEPES, 125 mM NaCl, 5 mM KCl, 1 mM MgCl2, 1 mM CaCl2, 0.05% Tween20, 1 mg/mL salmon sperm DNA; 37 °C, 30 min; pH not stated; conditions: protein: recombinant, chain copies: 2, label: 5' DyLight 650 via thiol C6
# mouse transferrin receptor (mTfR), sequence (Q62351 89-763): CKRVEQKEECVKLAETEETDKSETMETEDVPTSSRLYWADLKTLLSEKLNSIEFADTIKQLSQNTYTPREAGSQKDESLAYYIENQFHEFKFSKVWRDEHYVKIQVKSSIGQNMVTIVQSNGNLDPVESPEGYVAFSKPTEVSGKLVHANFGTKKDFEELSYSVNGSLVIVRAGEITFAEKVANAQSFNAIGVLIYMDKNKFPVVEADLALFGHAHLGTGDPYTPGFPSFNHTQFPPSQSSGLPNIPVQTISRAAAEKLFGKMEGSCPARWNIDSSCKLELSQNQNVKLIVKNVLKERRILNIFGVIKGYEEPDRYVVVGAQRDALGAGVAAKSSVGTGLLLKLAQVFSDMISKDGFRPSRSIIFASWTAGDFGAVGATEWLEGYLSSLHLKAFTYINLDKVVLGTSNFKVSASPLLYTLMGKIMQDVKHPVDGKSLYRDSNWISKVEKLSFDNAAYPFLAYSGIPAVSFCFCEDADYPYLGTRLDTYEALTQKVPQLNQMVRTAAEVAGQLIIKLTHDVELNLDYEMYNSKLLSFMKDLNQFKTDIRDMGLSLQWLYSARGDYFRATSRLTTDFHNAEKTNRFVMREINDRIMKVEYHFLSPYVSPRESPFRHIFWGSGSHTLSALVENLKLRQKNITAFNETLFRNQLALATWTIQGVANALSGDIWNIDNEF
# [3] = molecular target: T1, human transferrin receptor 1 (hTfR); test: bead-based flow cytometry; apparent Kd; SB1T: 40 mM HEPES, 125 mM NaCl, 5 mM KCl, 1 mM MgCl2, 1 mM CaCl2, 0.05% Tween20, 1 mg/mL salmon sperm DNA; 37 °C, 30 min; pH not stated; conditions: protein: recombinant, tags: His, chain copies: 2, label: 5' DyLight 650 via thiol C6
# [4] = hairpin with bulge and loop (predicted)
binder,measurement,setting,value
B1,Kd,[1],22.1 nM
same,binding result,[2],no binding
B2,Kd,[3],7.44 nM
B3,binding result,[2]; [4],no binding
same,Kd,[3]; [4],4.23 nM
B4,binding result,[2],no binding
